In article PMC12196469, “Synthesis and Characterization of Transferrin Receptor-Targeted Peptide Combination SN-38 and Rucaparib Conjugate for the Treatment of Glioblastoma” (Pharmaceutics, 2025):

Assays:
[1] = Control incubation of conjugate in enzyme-free buffer pH 6.0; assay type: in vitro ADME; conditions: pH 6.0, no cathepsin B, RP-HPLC, over 24 h
Experimental: The cleavage profile of T7-SN-38-rucaparib was evaluated by following a published method. […] This mixture was added to 4.9 mL of reaction buffer (150 mM sodium acetate buffer, 12 mM EDTA, 24 mM DTT in H2O, pH 6.0). […] The reaction was allowed to proceed at 37 °C, and samples were taken and analyzed by RP-HPLC at predetermined intervals (0–24 h). Changes in peak areas of the pure drugs and conjugate at their characteristic retention times to observe the disappearance of T7-SN-38-rucaparib and the appearance of free SN-38 and rucaparib over a 24 h period were monitored.

HEK-293 cells = experiment: XTT cytotoxicity on HEK-293 cells; conditions: HEK-293 cells, 24 h, p < 0.05, n = 4
Experimental: (§1) HEK-293 cells (15,000/well), seeded in 96-well plates, were allowed to attach for 24 h. […] To evaluate cytotoxicity, XTT solution was added to each well at 24 and 72 h after treatment per manufacturer protocol. Following a 3-h incubation period, the absorbance of each well was measured at 450 nm using a Biotek ELx808 microplate reader (Lonza). Average absorbance values of the cells treated with different concentrations of test agents were normalized to those of untreated cell controls, and percent cell viability was plotted using GraphPad Prism 10.
(§2) IC50 values were calculated by concentration-response curve fitting using Microsoft Excel 16.77 (Microsoft Corp). Data represent mean ± standard deviation (SD) unless otherwise indicated. Differences between groups were determined by ANOVA, with a p-value < 0.05 deemed statistically significant.

[2] = XTT cytotoxicity on HEK-293 cells
Experimental: as §1, §2

[3] = tested on: U87MG cells with blocked transferrin receptors; experiment: T7 competition assay with or without exogenous cathepsin B on TfR-blocked U87MG cells; conditions: 20 nM drug equivalents, exogenous cathepsin B added, 72 h, XTT, n = 4
Experimental: In these studies, blocking was done as reported for the transferrin receptor blocking studies above. […] In an additional step, exogenous cathepsin B was added to the treated wells. In a parallel experiment, cells were treated with the same test agents at the same concentrations but without exogenous cathepsin B. XTT assays were conducted at 72 h following the manufacturer’s protocol for cytotoxicity. Percent cell viability was calculated, and the data were plotted using GraphPad Prism 10.

[4] = XTT cytotoxicity on U87MG cells
Experimental: U87MG cells (10,000 cells per well) were seeded in 96-well plates and allowed to attach for 24 h. […] To evaluate cytotoxicity, XTT solution was added to each well per manufacturer protocols at 24 and 72 h after treatment. Following a 3-h incubation period, the absorbance of each well was measured at 450 nm using a Biotek ELx808 microplate reader (Lonza, Basel, Switzerland). Average absorbance values of the cells treated with different concentrations of test agents were normalized to those of the untreated cell controls. GraphPad Prism 10 was used to plot percent cell viability.
U87MG cells (10,000/well), seeded in 96-well plates, were allowed to attach for 24 h. The cells, incubated at 37 °C, were then treated with rucaparib solution at concentrations ranging from 5 nM to 160 nM. To evaluate cytotoxicity, XTT solution was added to each well at 24 and 72 h after treatment per manufacturer protocol. Following a 3-h incubation period, the absorbance of each well was measured at 450 nm using a Biotek ELx808 microplate reader (Lonza). The average absorbance of the cells treated with different concentrations of rucaparib were normalized to those of untreated cell controls. […]
IC50 values were calculated by concentration-response curve fitting using Microsoft Excel 16.77 (Microsoft Corp). […] Differences between groups were determined by ANOVA, with a p-value < 0.05 deemed statistically significant.

human liver cathepsin B = target: T1, human liver cathepsin B (Homo sapiens, UniProt P07858); experiment: In vitro cleavage of T7-SN-38-rucaparib by exogenous cathepsin B (RP-HPLC); assay type: in vitro ADME; conditions: sodium acetate buffer with EDTA and DTT, pH 6.0, 37 °C, conjugate 210 µM, n = 3
T1 construct: human liver cathepsin B stock (0.47 mg/mL, 324 U/mg, Merck Millipore); purchased Merck Millipore; host or cells: human liver (tissue-derived, as the product name says)
Experimental: The cleavage profile of T7-SN-38-rucaparib was evaluated by following a published method. Using this method, 11 μL of human liver cathepsin B stock (0.47 mg/mL, 324 U/mg, Merck Millipore) was activated in 27.2 μL of activation buffer (30 mM DTT, 15 mM EDTA in H2O) for 15 min. This mixture was added to 4.9 mL of reaction buffer (150 mM sodium acetate buffer, 12 mM EDTA, 24 mM DTT in H2O, pH 6.0). Cleavage was initiated by adding the cathepsin B solution to the T7-SN-38-rucaparib stock solution (8) in DMSO (final concentration 210 µM). The reaction was allowed to proceed at 37 °C, and samples were taken and analyzed by RP-HPLC at predetermined intervals (0–24 h). Changes in peak areas of the pure drugs and conjugate at their characteristic retention times to observe the disappearance of T7-SN-38-rucaparib and the appearance of free SN-38 and rucaparib over a 24 h period were monitored.

SMILES: CCc1c2c(nc3ccc(OCc4ccc(NC(=O)[C@H](C)NC(=O)[C@@H](NC(=O)CCCCCNC(=O)COCCOCCOCCNC(=O)CCCCC(=O)N5Cc6ccccc6-c6c(nnn6CCOCCOCCOCCOCCC(=O)N[C@@H](CSC6CC(=O)N(CCC(=O)NCCOCCOCCOCCOCCC(=O)NCCCCCC(=O)N[C@H](C(=O)N[C@@H](C)C(=O)Nc7ccc(COC(=O)N(C)Cc8ccc(-c9[nH]c%10cc(F)cc%11c%10c9CCNC%11=O)cc8)cc7)C(C)C)C6=O)C(=O)NCCOCCOCCOCC(=O)N[C@@H](Cc6c[nH]cn6)C(=O)N[C@@H](C)C(=O)N[C@H](C(=O)N[C@@H](Cc6ccc(O)cc6)C(=O)N6CCC[C@H]6C(=O)N[C@@H](CCCNC(=N)N)C(=O)N[C@@H](Cc6c[nH]cn6)C(=O)O)[C@@H](C)CC)-c6ccccc65)C(C)C)cc4)cc13)-c1cc3c(c(=O)n1C2)COC(=O)[C@]3(O)CC (stereo partly drawn) [T7-SN-38-rucaparib]
- release of free drugs in enzyme-free buffer [1]: < 10%
- cytotoxicity, conjugate versus free drugs (HEK-293 cells): significantly lower cytotoxicity compared to free SN-38-rucaparib
- IC50 [2]: 116 nM
- cytotoxicity with exogenous cathepsin B [3]: comparable cytotoxicity to the cells treated with free drugs
- IC50 [4]: 22.3 nM
- Percent Cleaved (human liver cathepsin B; time 1 h): 17.8%
- Percent Cleaved (human liver cathepsin B; time 4 h): 43.8%
- Percent Cleaved (human liver cathepsin B; time 8 h): 61.6%
- Percent Cleaved (human liver cathepsin B; time 24 h): 87.3%
